Reference: the supplement of paper PMC10567573

B1: PDZK1 (parent)
chain: FQAKKIPIVSSLADPLDTPPDSKE
B2: ZNF511 (parent)
chain: YEHHYHTLHGNVCSFCKRAFPSGH
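Note: lentivirally expressed fusions sorted by FACS into six bins by GFP to DsRed ratio, PSI derived from sequencing read proportions per bin multiplied by bin number.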

Variants of: B1
Assay: protein stability index of a GFP-peptide fusion (GPS, HEK-293T) (PSI 1-6); higher = more stable
Details: c terminus: a fixed tail appended
For FQAKKIPIVSSLADCLDTPPDSKE [P15C], the protein stability index was 3.55. In the case of FQAKKIPIVSSLADDLDTPPDSKE [P15D], the protein stability index is reported as 4.1. Variant FQAKKIPIVSSLADELDTPPDSKE [P15E] has a protein stability index of 3.48. FQAKKIPIVSSLADFLDTPPDSKE [P15F] showed a protein stability index of 3.23. Work on FQAKKIPIVSSLADGLDTPPDSKE [P15G] yielded a protein stability index of 4.12. Work on FQAKKIPIVSSLADHLDTPPDSKE [P15H] yielded a protein stability index of 3.85. FQAKKIPIVSSLADILDTPPDSKE [P15I] gave a protein stability index of 3.53. Variant FQAKKIPIVSSLADKLDTPPDSKE [P15K] has a protein stability index of 3.25. FQAKKIPIVSSLADLLDTPPDSKE [P15L] gave a protein stability index of 2.86. With FQAKKIPIVSSLADMLDTPPDSKE [P15M] the protein stability index was 3.11. Work on FQAKKIPIVSSLADNLDTPPDSKE [P15N] yielded a protein stability index of 3.64. For FQAKKIPIVSSLADQLDTPPDSKE [P15Q], the protein stability index was 3.71. FQAKKIPIVSSLADRLDTPPDSKE [P15R] gave a protein stability index of 3.73. Variant FQAKKIPIVSSLADSLDTPPDSKE [P15S] has a protein stability index of 3.58. In the case of FQAKKIPIVSSLADTLDTPPDSKE [P15T], the protein stability index is reported as 3.57. In the case of FQAKKIPIVSSLADVLDTPPDSKE [P15V], the protein stability index is reported as 3.43. In the case of FQAKKIPIVSSLADWLDTPPDSKE [P15W], the protein stability index is reported as 2.45. Variant FQAKKIPIVSSLADYLDTPPDSKE [P15Y] has a protein stability index of 3.32. In the case of FQAKKIPIVSSLADPADTPPDSKE [L16A], the protein stability index is reported as 3.85. Work on FQAKKIPIVSSLADPCDTPPDSKE [L16C] yielded a protein stability index of 3.72. In the case of FQAKKIPIVSSLADPEDTPPDSKE [L16E], the protein stability index is reported as 4.07. With FQAKKIPIVSSLADPFDTPPDSKE [L16F] the protein stability index was 2.89. FQAKKIPIVSSLADPGDTPPDSKE [L16G] showed a protein stability index of 3.85. Work on FQAKKIPIVSSLADPIDTPPDSKE [L16I] yielded a protein stability index of 3.91. FQAKKIPIVSSLADPKDTPPDSKE [L16K] gave a protein stability index of 3.76. With FQAKKIPIVSSLADPMDTPPDSKE [L16M] the protein stability index was 3.79. FQAKKIPIVSSLADPNDTPPDSKE [L16N] gave a protein stability index of 4.27. For FQAKKIPIVSSLADPRDTPPDSKE [L16R], the protein stability index was 3.77. FQAKKIPIVSSLADPSDTPPDSKE [L16S] showed a protein stability index of 4.13. In the case of FQAKKIPIVSSLADPVDTPPDSKE [L16V], the protein stability index is reported as 3.91. For FQAKKIPIVSSLADPWDTPPDSKE [L16W], the protein stability index was 2.99. For FQAKKIPIVSSLADPYDTPPDSKE [L16Y], the protein stability index was 3.47. Work on FQAKKIPIVSSLADPLATPPDSKE [D17A] yielded a protein stability index of 3.75. FQAKKIPIVSSLADPLLTPPDSKE [D17L] showed a protein stability index of 3.28. For FQAKKIPIVSSLADPLDAPPDSKE [T18A], the protein stability index was 3.59. FQAKKIPIVSSLADPLDCPPDSKE [T18C] showed a protein stability index of 3.46. For FQAKKIPIVSSLADPLDDPPDSKE [T18D], the protein stability index was 3.68. Work on FQAKKIPIVSSLADPLDEPPDSKE [T18E] yielded a protein stability index of 3.75. Variant FQAKKIPIVSSLADPLDFPPDSKE [T18F] has a protein stability index of 3.55. FQAKKIPIVSSLADPLDGPPDSKE [T18G] showed a protein stability index of 3.62. FQAKKIPIVSSLADPLDHPPDSKE [T18H] showed a protein stability index of 3.29. FQAKKIPIVSSLADPLDIPPDSKE [T18I] showed a protein stability index of 3.75. Work on FQAKKIPIVSSLADPLDKPPDSKE [T18K] yielded a protein stability index of 3.81. Variant FQAKKIPIVSSLADPLDMPPDSKE [T18M] has a protein stability index of 3.73. For FQAKKIPIVSSLADPLDNPPDSKE [T18N], the protein stability index was 3.48. Work on FQAKKIPIVSSLADPLDRPPDSKE [T18R] yielded a protein stability index of 3.6. With FQAKKIPIVSSLADPLDSPPDSKE [T18S] the protein stability index was 3.53. With FQAKKIPIVSSLADPLDVPPDSKE [T18V] the protein stability index was 3.57. FQAKKIPIVSSLADPLDWPPDSKE [T18W] showed a protein stability index of 3.86. With FQAKKIPIVSSLADPLDYPPDSKE [T18Y] the protein stability index was 3.33. FQAKKIPIVSSLADPLDTAPDSKE [P19A] showed a protein stability index of 3.43. Work on FQAKKIPIVSSLADPLDTCPDSKE [P19C] yielded a protein stability index of 3.53. FQAKKIPIVSSLADPLDTDPDSKE [P19D] showed a protein stability index of 3.87. Variant FQAKKIPIVSSLADPLDTEPDSKE [P19E] has a protein stability index of 3.35. FQAKKIPIVSSLADPLDTFPDSKE [P19F] showed a protein stability index of 2.9. FQAKKIPIVSSLADPLDTGPDSKE [P19G] showed a protein stability index of 3.91. Work on FQAKKIPIVSSLADPLDTHPDSKE [P19H] yielded a protein stability index of 4.01. In the case of FQAKKIPIVSSLADPLDTIPDSKE [P19I], the protein stability index is reported as 3.55. Variant FQAKKIPIVSSLADPLDTKPDSKE [P19K] has a protein stability index of 3.66. For FQAKKIPIVSSLADPLDTLPDSKE [P19L], the protein stability index was 3.2. Variant FQAKKIPIVSSLADPLDTMPDSKE [P19M] has a protein stability index of 3.72. Work on FQAKKIPIVSSLADPLDTNPDSKE [P19N] yielded a protein stability index of 3.88. Work on FQAKKIPIVSSLADPLDTQPDSKE [P19Q] yielded a protein stability index of 4.17. FQAKKIPIVSSLADPLDTRPDSKE [P19R] showed a protein stability index of 3.56. In the case of FQAKKIPIVSSLADPLDTSPDSKE [P19S], the protein stability index is reported as 3.67. Work on FQAKKIPIVSSLADPLDTTPDSKE [P19T] yielded a protein stability index of 3.85. FQAKKIPIVSSLADPLDTVPDSKE [P19V] showed a protein stability index of 3.54. With FQAKKIPIVSSLADPLDTWPDSKE [P19W] the protein stability index was 3.19. For FQAKKIPIVSSLADPLDTYPDSKE [P19Y], the protein stability index was 3.81. In the case of FQAKKIPIVSSLADPLDTPADSKE [P20A], the protein stability index is reported as 4.05. With FQAKKIPIVSSLADPLDTPCDSKE [P20C] the protein stability index was 3.94. FQAKKIPIVSSLADPLDTPDDSKE [P20D] showed a protein stability index of 4.28. Work on FQAKKIPIVSSLADPLDTPEDSKE [P20E] yielded a protein stability index of 4.21. Work on FQAKKIPIVSSLADPLDTPFDSKE [P20F] yielded a protein stability index of 3.17. FQAKKIPIVSSLADPLDTPGDSKE [P20G] showed a protein stability index of 4.28. In the case of FQAKKIPIVSSLADPLDTPHDSKE [P20H], the protein stability index is reported as 3.53. FQAKKIPIVSSLADPLDTPIDSKE [P20I] gave a protein stability index of 3.61. For FQAKKIPIVSSLADPLDTPKDSKE [P20K], the protein stability index was 3.88. FQAKKIPIVSSLADPLDTPLDSKE [P20L] showed a protein stability index of 3.35. Work on FQAKKIPIVSSLADPLDTPMDSKE [P20M] yielded a protein stability index of 3.75. FQAKKIPIVSSLADPLDTPNDSKE [P20N] showed a protein stability index of 3.7. In the case of FQAKKIPIVSSLADPLDTPQDSKE [P20Q], the protein stability index is reported as 3.73. FQAKKIPIVSSLADPLDTPRDSKE [P20R] gave a protein stability index of 3.77. FQAKKIPIVSSLADPLDTPSDSKE [P20S] gave a protein stability index of 3.62. FQAKKIPIVSSLADPLDTPTDSKE [P20T] gave a protein stability index of 3.58. FQAKKIPIVSSLADPLDTPVDSKE [P20V] showed a protein stability index of 3.74. With FQAKKIPIVSSLADPLDTPWDSKE [P20W] the protein stability index was 2.62. With FQAKKIPIVSSLADPLDTPYDSKE [P20Y] the protein stability index was 3.89. For FQAKKIPIVSSLADPLDTPPGSKE [D21G], the protein stability index was 2.89. Variant FQAKKIPIVSSLADPLDTPPRSKE [D21R] has a protein stability index of 2.76. For FQAKKIPIVSSLADPLDTPPDSGE [K23G], the protein stability index was 3.94. Variant FQAKKIPIVSSLADPLDTPPDSRE [K23R] has a protein stability index of 3.23. FQAKKIPIVSSLADPLDTPPDSVE [K23V] gave a protein stability index of 3.33.

Variants of: B2
Assay: as above
Details: c terminus: a fixed tail appended
Variant FEHHYHTLHGNVCSFCKRAFPSGH [Y1F] has a protein stability index of 2.72.
